Laboratory results reported in a protein production outcome set (Wang et al. 2014).

Test: label from the status in PepcDB records
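Further: failed if final PepcDB status was selected cloned or expressed and not failed if soluble or beyond.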

Sequence	protein production
MQDTPQRGQRSKVRWLVAGLMWAAIAINYIDRTVLSAAAPHIQKEFHLSAVEMGVVMSAFFWSYALLQLPAGILADRFGQKKVLGFAVLWWSLATAVTGLATGFKSLVGLRVALGVGEAGAYPSNAGITSRWFPKQERATVAAIFDSGSKLGSAIALPLIAWLLVTFDWKITFTVAGSLGIVWCVVWALVFRDSPAEHEGVNAAELAHIQKGLPPARGADAPAMPWTKLLTHRNVWAMCIGFFMINYNSYFFITWLPTYLVKERGMGLMEMGFMASLPLFVSMFVEVFAGWASDRVYASGRLSLTATRKLFLVIGLVMASSIGLAAFAQSAVVAVILLCIAKSGTTVAASQVWALPADVAPGNTVSMVAGLQNSVSNMGGVVGPIVTGAIVGATGSFIPALVFSAALIGLAILNYLFLLGKVEPIAFEPNPATLNPNSHGRSNADARA	failed
MQEAEAIYQSGMKILNGSTRKNQKREAYRYLQKAAGMNHTKALERVSYALLFGDYLTQNIQAAKEMFEKLTEEGSPKGQTGLGFLYASGLGVNSSQAKALVYYTFGALGGNLIAHMVLGYRYWAGIGVLQSCESALTHYRLVANHVASDISLTGGSVVQRIRLPDEVENPGMNSGMLEEDLIQYYQFLAEKGDVQAQVGLGQLHLHGGRGVEQNHQRAFDYFNLAANAGNSHAMAFLGKMYSEGSDIVPQSNETALHYFKKAADMGNPVGQSGLGMAYLYGRGVQVNYDLALKYFQKAAEQGWVDGQLQLGSMYYNGIGVKRDYKQALKYFNLASQGGHILAFYNLAQMHASGTGVMRSCHTAVELFKNVCERGRWSERLMTAYNSYKDDDYNAAVVQYLLLAEQGYEVAQSNAAFILDQREATIVGENETYPRALLHWNRAASQGYTVARIKLGDYHFYGFGTDVDYETAFIHYRLASEQQHSAQAMFNLGYMHEKGLGIKQDIHLAKRFYDMAAEASPDAQVPVFLALCKLGVVYFLQYIREANIRDLFTQLDMDQLLGPEWDLYLMTIIALLLGTVIAYRQRQHQDIPVPRPPGPRPAPPQQEGPPEQQPPQ	failed
MQECTNVQVSKMMLSAPQHLVGGSVSEITPNRDLSLDSMHTSQVKQNIRALWTALVLLSVFFCIELSAGIWSHSLSLLADAEHILSDVAALGLALIASWLSQSISQRTIFGRYKLEVLAALINGISLACIACWIVREALVRLQSPTTEILGVPMLTTALIGVGVNSFNALCLHKCSHKDLNIRGALLHLIADLASSVGAVLAAIAIIWLNWTWADGVISLVVAMLIASFAAYLLIQSVQCLRGQIADISDIACMCPPQSEVCVDRQQAEKLLFPTLEELVQ	failed
MQEELAWETDGLLPLERQLHEAARQNNVGRMQELIGRRVNTRARNHVGRVALHWAAGAGHEQAVRLLLEHEAAVDEEDAVGALTEARLCFGMNALLLSAWFGHLRILQILVNSGAKIHCESKDGLTLLHCAAQKGHVPVLAFIMEDLEDVALDHVDKLGRTAFHRAAEHGQLDALDFLVGSGCDHNVKDKEGNTALHLAAGRGHMAVLQRLVDIGLDLEEQNAEGLTALHSAAGGSHPDCVQLLLRAGSTVNALTQKNLSCLHYAALSGSEDVSRVLIHAGGCANVVDHQGASPLHLAVRHNFPALVRLLINSDSDVNAVDNRQQTPLHLAAEHAWQDIADMLLIAGVDLNLRDKQGKTALAVAVRSNHVSLVDMIIKADRFYRWEKDHPSDPSGKSLSFKQDHRQETQQLRSVLWRLASRYLQPREWKKLAYSWEFTEAHVDAIEQQWTGTRSYQEHGHRMLLIWLHGVATAGENPSKALFEGLVAIGRRDLAGWSTMARSQLTATSASRVQMILVPQPPE	failed
MQEESHIEEVEIQNKLEVAPALISVHPSQKSVAVAVGSDLRIFDLIENCPVSLVDESDGPIRKESIRAIRYSTSGKLFVSAGDDKLVKIWSADSWRCLNTVCSEKRVSAVAISSDDSHVCYADKFGVVWVIELDGINDGKTLPSKKGALLLSHYCSIITSLEFSPDGRYILSADRDFKIRVTVFPKKPLEGAHEIQSFCLGHSEFITCTAFVSTPELTQGYLMSGSGDSTVRLWDITSGSLLDTCEVSTVAGHAESNENESPTQVTVTDICAIPNSSLAAVAIQSFQGIFLLSCDLTAHTLSITKVIKIPGESFIPTSIAVSASSRLLWMVSGASNLPGSNHPGFSRVRVISCLETESSSILEDEQIPGGTKLLEQLQGKVTIEESVMSAAAEAVRAAMSSLLMKKQYSEEKREFRKRTRNDKKTTR	failed
MQEGNFKAGTYSAARQGIGGDVTVTLDIDAQGKVLKSTIDALEETPEVGGEAAIELAKTMTEKQSIQVDGVSGATMTSGAVHEAAEDAYSQAKANLEHHHHHH	not failed
MQEIEIFCDGSSLGNPGPGGYAAILRYKDKEKTISGGEEFTTNNRMELRALNEALKILKRPCRITLYSDSQYVCQAINVWLANWQKKNFSKVKNVDLWKEFLEVSKGHSIVAVWIKGHNGHAENERCDSLAKLEAQKRVKTTT	failed
MQESVVRVDYDSLETCKNFKPSVGTELIVLEKDIAHARFKGNESMVYEENFVHAGFVLIACNYAALCALNKRHSVVVSNNINFYAPLELNQEALIKAQVIQDGVKKAEIKIEAFVLDIQVLEGMIEIVVFDKKPFKFNFKEELEHHHHHH	failed
MQETDSGAGPRTLRRGLMVLAALRDQGPRGLSVTDIARQTGIQRPTIYRLLAALLDAGLVVPLQGTKKYRTQLAADADLAAPNPRVRQMLPVLRRLADRTGDAVFLVVRDGDDSVSLHREIGSYPVQILATYAGKRQPLGVGSGSMALLAALPDEVAHAIVQRNSGRLDEYGGMTPQEMHRLIENTRARGYSVVGNHAVRGALGVGCALLDAQGAPVLAVSVTAIIDRMPAQRQREIAGWIGAELARLAPKA	failed
MQFFGGSEISPSPPVPTASGNNAHMMYVFNRNGVCLLYKEWNRPLHTLNPQQDHKLMFGLLFSLKSLTAKMDPVNADKGNLGVPQLPGQGCSFHSFRTNTYKLSFMETPSGIKIILVTHPKTGDLRESLKYIYSLYVEYVVKNPIYSPGSPIKSELFNTALDQYVRSIS	failed
MQFGIFTVGDVTPDPTTGRTPTEHERIKAMTTIAKHAEDVGLDVFATGEHHNPPFVPSSPTTMLGYLAAQTEKIILSTSTTLITTNDPVKIAEDYAMLQHLADGRVDLMMGRGNTAPVYPWFGQDIRQGIPLALEHYRLLRRLWDEDVVDWQGQFRTPLQGFTSTPRPLDGIAPFVWHGSIRSPEIAEIAAFHGDGFFANNIFWPKEHYIALINLYRERYEHYGHGRADQAIVGLGGQVFMRRNAKDAVDEFRPYFDNAPVYGHGPSLEDFTEQTPLTVGTPEQVIEKTLTFADFFGDYQRQLFLVDHAGLPLKTVLEQLDLLGGEVVPVLRKEFAARR	failed
MQFIKNLQLNKKKDSDSSEQVLTNKKNKMKYEDFNFIRTLGTGSFGRVILATYKNGNYPPVAIKRFEKCKIIRQKQVDHVFSERKILNYINHPFCVNLHGSFKDDSYLYLVLEFVIGGEFFTFLRRNKRFPNDVGCFYAAQIVLIFEYLQSLNIVYRDLKPENLLLDKDGFIKMTDFGFAKIVETRTYTLCGTPEYIAPEILLNVGHGKAADWWTLGIFIYEILVGCPPFYANEPLLIYQKILEGIIYFPKFLDNNCKHLMKKLLSHDLTKRYGNLKKGAQNVKEHPWFSNIDWVNLLNKNVEVPYKPKYKNIFDSSNFERVQEDLTIADKITNENDPFYDW	failed
MQFIPPILCKMNGRRQLNMHQQTKRLITISMLSAVAFILMFIKFPIPFLPPYLTLDFGDVPALLATFILGPVAGLIVEFIKNLLNFLFNIGDPVGPVANFLAASSFLLTAYFVTKYKDKIKSQIVGLSIATVVMTIVLSILNYFVLLPLYGMIMNLSDVVENVKIVIVSGVIPFNIIKGIVISIIFILLYNRLKNVLPK	failed
MQFIVSKKEFIPPVIAPDIIETLGDDYEIWTYEDYERLPPLLVGVYSYSAIPKCLAPLSTQGLVKSGVFRLQREFVPGLYGNGVYVVVIDTGVNYAQEAFMTPEGKTKIAVLWDQNTDTVYSEDEINAAILSENPYESIPGDEDGHGTFVASVICGNDRPQDDFAGVAPQAKLIVVKLKRAPQKLYDFYFIPDRKMVYSEVDVMRAVHFADEFAGQKGAPAVFCMALGCNNGSHTGAEDLSEYLDYITAKRGRAVVAAAGNEANSRHHYKGRITDTVDDIEINVEQDMDGFYLECWALSPELFTLSVISPSGQSNPAGVPMRIDSGEYSFLLEGTQVTIDYRQTGRQTRDLLIFIRFEKVVKGVWTIRVFPLSTIGGVFNMWLPMTGLLDADVSFIVSEPDTTLTMPSDAKLVITAGGYNSLNDAILLESGRGFDADGGIKPDLVAPAVDITGANLRGMYIALSGTSAAAAITAAVAALIMEWMIVRGNVLLANGVDIKNVMVRNCRRKEKTDYPNKIFGYGFMNGFANF	failed
MQFQDVRLMRVVVCRRLGPAKGQRRWHPLDLGTTGCFENLGAQRPTYRMRAIRMLECAMPNRLVRSLQRWRPFGLPPHRWRLAPWYWRGLQVTLEPGSAIAWIVRLTGGFEETEIDIAAALYSALYPDRCILDVGANVGIHSLAWARLAPVVALEPAPGTHSRLEANVAANGLQDRIRTLRTAAGDAVGEVDFFVAADSAFSSLNDTGRIRIRERTRVPCTTLDALAAELPLPVGLLKIDVEGLERAVIAGAAELLRRDRPVLLVEIYGGAASNPDPERTIADIRAYGYEPFVYADDAGLQPYQRHRDDRYCYFFIPSRKG	failed
MQGGMMKQLVVAGFFLLLLTSPLSALDVDTYRSSQKQFNTEDKAEQGDAQAQFELGLKYEKGDGVNKDLKKAIYWYQKAADQGQAEAQNNLGVLYLKGEGVPQNSQQAMYWFKKASEQGLAIGQNNIGILYENGLGVKKDPGQAFIWYQKAAEGGNSDGQYNLAVMYMYGNGIPKDIKKAIHWYIKAAEQGDLDAQNNLGVLYERGEEVPRDLKAAISWYTRAANEGSLIAQTNLGVLYMTGDPSIQDGKKAIYWYEKAAAQGGEKAQNNLGYIYEQGIGTEKDMKKAIYWYEKAAENGFTLAQNNLGVLYSNDGELQDYKKAYLWFKKAADQGFAEAQNNLGLMYMKGNGLSVNYHEAVLWYKRAAEQGLPLAQHNLAIMYMKGLGIKKDNKLAIKWYQKAAEKGLDLAQNNLAVMYIRGEGVKRDFKKAMYWYQKAAEQGLDLAQINLGIMYLDGMGVNKDFAKAKYWIGKAKDSGSQDALTIWNKNKLWKYQ	failed
MQGIGEGVRRAFPIVLGYVPVGFAFGVLALKSGIPAWGALAMSLFVFAGSGQLIAVGLIGGGAPLASVVLTTFVVNLRHLLMSAALAPRLRDWGLLRQALFSAEMTDETFAVHVSTLRGEADDPSRAAVFACNVTAHAAWVGGSALGVFCSTLVADVRPLGLDYALAAMFIALLLPQCRSRAHLFAALVAGACSVGFALSGAGRWNVMLATVCAATLVSLLPVGKTSTTREEMGTPGGEGGAHAD	failed
MQGIKNLTHGPINRQLFNLAMPIMATSFIQMAYSLTDMAWVGRLGSEAVAAIGSVGILTWMSGSISLLNKVGSEVSVGQSIGAQNQEDARQFASHNITIALIISICWGGLLFMFASPIIRIYELEEHITANAIEYLRIISTALPFIFLSAAFTGIYNAAGRSKIPFYISGTGLIMNIILDPLFIFGFGLGTNGAAYATWLSQATVFAIFIYQLRFRKDALLGGFPFFSRLKKKYTRRILKLGLPVATLNTLFAFVNMFLCRTASEQGGHIGLMTFTTGGQIEAITWNTSQGFSTALSAFIAQNFAAGRIERVLKAWHTTLWMTGIFGTFCTLLFVFYGNEVFSIFVPEQAAYEAGGVFLRIDGYSQLFMMLEITMQGVFYGIGRTVPPAIVSIVCNYMRIPLAILFVRMGMGVEGIWWAVCVTTIAKGLILLGWFTMIRKKCLNLPSVSTR	failed
